# T1: recombinant human FcγRIIb (R&D Systems #1875-CD-050) (human, UniProt P31994 46-217, limits assumed)
# T1 construct: Bought; also called CD32b; recombinant, soluble, human FcγRIIb
# T1 sequence (looked up): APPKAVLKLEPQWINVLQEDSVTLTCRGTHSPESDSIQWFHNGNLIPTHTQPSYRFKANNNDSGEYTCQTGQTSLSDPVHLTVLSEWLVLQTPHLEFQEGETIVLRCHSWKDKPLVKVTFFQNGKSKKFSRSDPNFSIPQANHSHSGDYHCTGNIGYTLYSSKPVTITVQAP
# T2: recombinant human His-tagged FcγRIIa (R&D Systems #1330-CD-050) (human, UniProt P12318 36-218, limits assumed)
# T2 construct: Bought; also called CD32a; recombinant, soluble, human FcγRIIa
# T2 sequence (looked up): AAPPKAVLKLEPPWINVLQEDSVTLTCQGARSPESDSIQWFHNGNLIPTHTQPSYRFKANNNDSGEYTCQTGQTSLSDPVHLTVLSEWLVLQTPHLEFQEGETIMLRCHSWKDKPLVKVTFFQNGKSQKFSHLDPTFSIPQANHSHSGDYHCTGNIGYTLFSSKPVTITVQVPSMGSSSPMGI
# Legend:
# [1] = molecular target: T1, recombinant human FcγRIIb (R&D Systems …); test: AlphaScreen, FcγRIIb on nickel acceptor beads
# Experimental: (§1) FcγRIIa (CD32a) AlphaScreen—Nickel acceptor beads (Perkin Elmer #6760619C) were diluted 1:50 in assay buffer (PBS, pH 7.4, 4 mg/ml BSA, 0.01% Tween-20), and 27.5 μl were added to each well of a Nunc V-bottom polypropylene plate (VWR # 62409-108) (Powers G., Notebook 9006, pp. 169-175, 182-185). A 2.0 μg/ml solution of recombinant human His-tagged FcγRIIa (R&D Systems #1330-CD-050) was prepared in assay buffer and 27.5 μl added to each well of a separate Nunc V bottom polypropylene plate. Titrations of test Abs were prepared in the Nunc V bottom polypropylene plate starting at 30 μg/ml. A 2 μg/ml solution of biotinylated goat F(ab′)₂ anti-human IgG F(ab′)₂ (Jackson Immunoresearch #109-066-097) was prepared in assay buffer and 27.5 μl added to each well of another Nunc V bottom polypropylene plate. A 1:50 dilution of streptavidin donor beads (PerkinElmer # 6760002) was prepared in assay buffer and 27.5 μl added to each well of another Nunc V bottom polypropylene plate. A volume of 5 μl of each reagent was added to the corresponding quadrants of a low-volume, non-binding white 384-well plate (Corning # 3673) in the following order: acceptor beads, FcγRIIa, test Ab, biotinylated anti-human IgG F(ab′)₂, and streptavidin donor beads. The plates were incubated for 30 minutes with shaking and the O.D.s determined using an Envision plate reader.
# FcγRIIb (CD32b) AlphaScreen—The assay was performed as described above for FcγRIIa except that FcγRIIa was replaced with FcγRIIb (R&D Systems #1875-CD-050).
# [2] = molecular target: T2, recombinant human His-tagged FcγRIIa …; test: AlphaScreen, His-tagged FcγRIIa on nickel acceptor beads
# Experimental: as §1
# [3] = molecular target: T3, recombinant human His-tagged FcγRIIIa (extracellular domain made at Centocor) (human, UniProt P08637 17-208); test: ELISA, His-tagged FcγRIIIa captured on HisGrab plate
# T3 construct: extracellular domain; also called CD16a; recombinant, soluble, human FcγRIIIa
# T3 sequence (P08637 17-208): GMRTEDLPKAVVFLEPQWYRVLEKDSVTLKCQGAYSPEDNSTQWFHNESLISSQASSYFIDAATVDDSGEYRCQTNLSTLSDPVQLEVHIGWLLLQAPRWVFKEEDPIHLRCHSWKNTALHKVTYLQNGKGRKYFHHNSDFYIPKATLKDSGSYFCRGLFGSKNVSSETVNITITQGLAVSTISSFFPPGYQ
# Experimental: FcγRIIIa (CD16a) ELISA—A human FcγRIIIa binding assay was done in ELISA format similar to the assay for FcγRI above. 50 μl of a 2 μg/ml solution of recombinant human His-tagged FcγRIIIa (extracellular domain made at Centocor) in ELISA buffer (PBS, 4 mg/ml BSA, 0.01% Tween-20) was added to each well of HisGrab 96 well plates (Pierce #15142) (Powers G., Notebook 10378, 19-23). The plate was incubated for 3 hours at room temp. The plates were blocked with 200 μl of Starting Block (Pierce #15142) for 30 min, and then washed 3× with 300 μl of wash buffer (PBS, 0.01% Tween-20) on a plate washer. Serial dilutions of the CNTO 860 test samples were made in Starting Block buffer and 50 μl per well of each titration were added in duplicate to the FcγRIIIa-coated plates. The plates were incubated for 1 hour. The plates were washed 3× with 300 μl of wash buffer on a plate washer. 50 μl of a 1:10,000 dilution of HRP-labeled goat F(ab′)2 anti-human IgG F(ab′)2 (Jackson Immunoresearch # 109-036-097) in Starting Block buffer was added to each well. The plates were incubated for 30 minutes. The plates were washed 3× with 300 μl of wash buffer on the plate washer. 50 μl per well TMB substrate (RDI #RDI-TMBSU-1L) was added to each well and developed for 3-5 minutes. The reaction was stopped by adding 100 μl […] sulfuric acid. The plates were read at OD450 on an Envision plate reader. Antibody concentration vs OD450 values were graphed for each CNTO 860 variant and the antibody concentration needed to achieve an OD450 reading of 0.14 established by interpolation within each data curve.
# [4] = molecular target: T4, recombinant human His-tagged FcγRI (extracellular domain, R&D Systems #1257-FC-050) (human, UniProt P12314 16-292); test: ELISA, His-tagged FcγRI captured on HisGrab plate
# T4 construct: extracellular domain; Bought; also called CD64; recombinant, soluble, human FcγRI
# T4 sequence (P12314 16-292): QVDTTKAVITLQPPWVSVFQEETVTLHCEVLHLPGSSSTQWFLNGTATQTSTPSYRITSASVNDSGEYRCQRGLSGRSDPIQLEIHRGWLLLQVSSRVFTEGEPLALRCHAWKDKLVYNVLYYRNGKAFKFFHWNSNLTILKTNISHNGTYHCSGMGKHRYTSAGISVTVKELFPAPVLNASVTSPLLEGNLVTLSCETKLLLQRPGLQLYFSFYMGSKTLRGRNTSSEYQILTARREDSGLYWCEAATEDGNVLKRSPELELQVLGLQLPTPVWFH
# Experimental: FcγRI (CD64) ELISA —50 μl of a 1 μg/ml solution of recombinant human His-tagged FcγRI (extracellular domain, R&D Systems #1257-FC-050) in ELISA buffer (PBS, pH 7.4, 4 mg/ml BSA, 0.01% Tween-20) was added to each well of HisGrab 96 well plates (Pierce #15142) (Powers G., Notebook 9006, pp. 166-168, 180-181). The plate was incubated with shaking for 3 hours. The plates were washed 3× with 300 μl of wash buffer (PBS, 0.01% Tween-20) on a plate washer. Serial dilutions of the CNTO860 antibody Fc-variant samples were made in ELISA buffer and 50 μl per well of each titration were added in duplicate to the FcγRI-coated plates. The plates were incubated with shaking for 1 hour. The plates were washed 3× with 300 μl of wash buffer on a plate washer. 50 μl of a 1:10,000 dilution of HRP-labeled goat F(ab′)₂ anti-human IgG F(ab′)₂ (Jackson Immunoresearch # 109-036-097) in ELISA buffer was added to each well. The plates were incubated with shaking for 30 minutes. The plates were washed 3× with 300 μl of wash buffer on the plate washer. 50 μl per well TMB substrate (RDI #RDI-TMBSU-1L) was added to each well and developed for 5 minutes. The reaction was stopped by adding 100 μl 0.2 N sulfuric acid. The plates were read at OD450 on an Envision plate reader.
Binder,"concentration (ng/ml) required for an O.D. value of 200,000 [1] [ng/mL]",concentration (ng/ml) required for a set O.D. signal [2] [ng/mL],concentration (ng/ml) required for an O.D. value of 0.14 [3] [ng/mL],concentration (ng/ml) required for an O.D. value of 1.0 [4] [ng/mL]
"CHO-CNTO 860 WT (antibody, human IgG1, kappa, N-linked glycan at heavy chain Asn297 (CHO-type, highly fucosylated); not carried by the letters, Anti-human tissue factor human IgG1/kappa; transiently expressed in CHO cells (plasmids p4145/p4146; CHO Abs typically 95% fucosylated), purified by protein A; also called CNTO 860 WT from CHO cells; WT (CHO cell-derived); copies: 2 + 2) heavy: not shown light: DIQMTQSPSSLSASVGDRVTITCKASQDIRKYLNWYQQKPGKAPKLLIYYATSLADGVPSRFSGSGSGTDYTFTISSLQPEDIATYYCLQHGESPYTFGQGTKLEITRTVAAPSVFIFPPSDEQLKSGTASVVCLLNNFYPREAKVQWKVDNALQSGNSQESVTEQDSKDSTYSLSSTLTLSKADYEKHKVYACEVTHQGLSSPVTKSFNRGEC",165,97,4500,480
"CHO-CNTO 860 A330Y (antibody, human IgG1, kappa, N-linked glycan at Asn297 of the heavy chain (CHO-type, highly fucosylated); not carried by the letters, IgG1/kappa Fc variant; transiently expressed in CHO cells (p4183/p4146); EU numbering; also called A330Y (CHO cell-derived); copies: 2 + 2) heavy: not shown light: DIQMTQSPSSLSASVGDRVTITCKASQDIRKYLNWYQQKPGKAPKLLIYYATSLADGVPSRFSGSGSGTDYTFTISSLQPEDIATYYCLQHGESPYTFGQGTKLEITRTVAAPSVFIFPPSDEQLKSGTASVVCLLNNFYPREAKVQWKVDNALQSGNSQESVTEQDSKDSTYSLSSTLTLSKADYEKHKVYACEVTHQGLSSPVTKSFNRGEC",280,142,3300,420
"CHO-CNTO 860 I332E (antibody, N-linked glycan at Asn297 of the heavy chain (CHO-type, highly fucosylated); not carried by the letters, IgG1/kappa Fc variant; transiently expressed in CHO cells (p4157/p4146); also called I332E (CHO cell-derived); I332E from CHO cells; copies: 2 + 2) heavy: not shown light: DIQMTQSPSSLSASVGDRVTITCKASQDIRKYLNWYQQKPGKAPKLLIYYATSLADGVPSRFSGSGSGTDYTFTISSLQPEDIATYYCLQHGESPYTFGQGTKLEITRTVAAPSVFIFPPSDEQLKSGTASVVCLLNNFYPREAKVQWKVDNALQSGNSQESVTEQDSKDSTYSLSSTLTLSKADYEKHKVYACEVTHQGLSSPVTKSFNRGEC",105,76,750,300
"CHO-CNTO 860 A330I (antibody, IgG1, N-linked glycan at Asn297 of the heavy chain (CHO-type, highly fucosylated); not carried by the letters, IgG1/kappa Fc variant; EU numbering; also called A330I (CHO cell-derived); copies: 2 + 2) heavy: not shown light: DIQMTQSPSSLSASVGDRVTITCKASQDIRKYLNWYQQKPGKAPKLLIYYATSLADGVPSRFSGSGSGTDYTFTISSLQPEDIATYYCLQHGESPYTFGQGTKLEITRTVAAPSVFIFPPSDEQLKSGTASVVCLLNNFYPREAKVQWKVDNALQSGNSQESVTEQDSKDSTYSLSSTLTLSKADYEKHKVYACEVTHQGLSSPVTKSFNRGEC",75000,2250,19000,750
"CHO-CNTO 860 I332E/S239D (antibody, human IgG1, kappa, Heavy chain N297 carries the CHO-type N-linked glycan (about 95% fucosylated); not carried by the letters., IgG1/kappa Fc variant; transiently expressed in CHO cells (p4186/p4146); EU numbering; also called S239D/I332E (CHO cell-derived); copies: 2 + 2) heavy: not shown light: DIQMTQSPSSLSASVGDRVTITCKASQDIRKYLNWYQQKPGKAPKLLIYYATSLADGVPSRFSGSGSGTDYTFTISSLQPEDIATYYCLQHGESPYTFGQGTKLEITRTVAAPSVFIFPPSDEQLKSGTASVVCLLNNFYPREAKVQWKVDNALQSGNSQESVTEQDSKDSTYSLSSTLTLSKADYEKHKVYACEVTHQGLSSPVTKSFNRGEC",27,75,600,480
"YB2/0-CNTO 860 A330I (antibody, IgG1, N-linked glycan at heavy chain Asn297 (YB2/0-type, low fucose); not carried by the letters, IgG1/kappa Fc variant; stably expressed in YB2/0 cells (p4177/p2402); EU numbering; also called A330I (YB2/0 cell-derived); A330I mutant expressed in YB2/0 cells; copies: 2 + 2) heavy: not shown light: DIQMTQSPSSLSASVGDRVTITCKASQDIRKYLNWYQQKPGKAPKLLIYYATSLADGVPSRFSGSGSGTDYTFTISSLQPEDIATYYCLQHGESPYTFGQGTKLEITRTVAAPSVFIFPPSDEQLKSGTASVVCLLNNFYPREAKVQWKVDNALQSGNSQESVTEQDSKDSTYSLSSTLTLSKADYEKHKVYACEVTHQGLSSPVTKSFNRGEC",37000,450,1200,570
"YB2/0-CNTO 860 A330Y (antibody, human IgG1, kappa, N-linked glycan at heavy chain Asn297 (YB2/0-type, low fucose); not carried by the letters, IgG1/kappa Fc variant; stably expressed in YB2/0 cells (p4176/p2402); EU numbering; also called A330Y (YB2/0 cell-derived); copies: 2 + 2) heavy: not shown light: DIQMTQSPSSLSASVGDRVTITCKASQDIRKYLNWYQQKPGKAPKLLIYYATSLADGVPSRFSGSGSGTDYTFTISSLQPEDIATYYCLQHGESPYTFGQGTKLEITRTVAAPSVFIFPPSDEQLKSGTASVVCLLNNFYPREAKVQWKVDNALQSGNSQESVTEQDSKDSTYSLSSTLTLSKADYEKHKVYACEVTHQGLSSPVTKSFNRGEC",165,78,340,420
"YB2/0-CNTO 860 A330I/I332E (antibody, human IgG1, kappa, N-linked glycan at heavy chain Asn297 (YB2/0-type, low fucose); not carried by the letters, IgG1/kappa Fc variant; stably expressed in YB2/0 cells (p4178/p2402); EU numbering; also called A330I/I332E (YB2/0 cell-derived); A330I/I332E from YB2/0 cells; copies: 2 + 2) heavy: not shown light: DIQMTQSPSSLSASVGDRVTITCKASQDIRKYLNWYQQKPGKAPKLLIYYATSLADGVPSRFSGSGSGTDYTFTISSLQPEDIATYYCLQHGESPYTFGQGTKLEITRTVAAPSVFIFPPSDEQLKSGTASVVCLLNNFYPREAKVQWKVDNALQSGNSQESVTEQDSKDSTYSLSSTLTLSKADYEKHKVYACEVTHQGLSSPVTKSFNRGEC",10500,1500,240,310
"CHO-CNTO 860 I332E/A330I (antibody, human IgG1, kappa, Heavy chain N297 carries the CHO-type N-linked glycan (about 95% fucosylated); not carried by the letters., IgG1/kappa Fc variant; transiently expressed in CHO cells (p4185/p4146); EU numbering; also called A330I/I332E (CHO cell-derived); A330I/I332E variant from CHO cells; copies: 2 + 2) heavy: not shown light: DIQMTQSPSSLSASVGDRVTITCKASQDIRKYLNWYQQKPGKAPKLLIYYATSLADGVPSRFSGSGSGTDYTFTISSLQPEDIATYYCLQHGESPYTFGQGTKLEITRTVAAPSVFIFPPSDEQLKSGTASVVCLLNNFYPREAKVQWKVDNALQSGNSQESVTEQDSKDSTYSLSSTLTLSKADYEKHKVYACEVTHQGLSSPVTKSFNRGEC",4500,900,520,420

# Source: US20080311034A1 (published 2008)
